The source of these data is PMC12297413.

The experiment has as its target HgcR (D-2-hydroxyglutarate catabolic regulator), PP4494 (Pseudomonas putida KT2440). Nature of the experiment: SEC.

“HgcR (D-2-hydroxyglutarate catabolic regulator), PP4494 (natural protein)” had a stoichiometry N of 2.
